According to PMC4789653, “Atomic visualization of a flipped-back conformation of bisected glycans bound to specific lectins” (Scientific Reports, 2016):

Target: the molecule itself
Assay: crystal structure; PHA-E (9 mg/ml, 20 mM Tris-HCl pH 8.0, 100 mM NaCl) with 0.6 mM bisected glycan 2; crystals from 0.1 M sodium acetate pH 4.5, 25% PEG3,350, 20 °C; 3.0 Å

B1: phytohemagglutinin from Phaseolus vulgaris (PHA-E) (natural protein, UniProt P05088 22-275, looked up)
chain: ASQTSFSFQRFNETNLILQRDATVSSKGQLRLTNVNDNGEPTLSSLGRAFYSAPIQIWDNTTGAVAASPTSFTFNIDVPNNSGPADGLAFVLLPVGSQPKDKGGLLGLFNNYKYDSNAHTVAVEFDTLYNVHWDPKPRHIGIDVNSIKSIKTTTWDFVKGENAEVLITYDSSTKLLVASLVYPSLKTSFIVSDTVDLKSVLPEWVIVGFTATTGITKGNVETNDILSWSFASKLSDGTTSEALNLANFALNQIL
notes: erythroagglutinating phytohemagglutinin (PHA-E), legume lectin from Phaseolus vulgaris; 120 kDa as tetramer; Crystallised with bisected glycan 2; eight subunits in the asymmetric unit; also called E4-PHA; PHA-E lectin; source: purified from Phaseolus vulgaris; bought: J-Oil Mills
  stoichiometry N: 4
